This data set deals with the molecule itself. As to the kind of experiment: AFM + dynamic light scattering; fibril dimensions from AFM images (2 nm height, 15 nm diameter, average length 350 nm) and the RH of the monomer from DLS; geometrical calculation.

The values below come from paper PMC5011719, “The amyloid fold of Gad m 1 epitopes governs IgE binding” (Scientific Reports, 2016).

B1: rGad m 1 wt (recombinant Gad m 1, Atlantic cod beta-parvalbumin) (natural protein, UniProt A5I874 1-109, looked up)
chain: MAFAGILNDADITAALAACKAEGSFDHKAFFTKVGLAAKSSADIKKVFEIIDQDKSDFVEEDELKLFLQNFSAGARALSDAETKVFLKAGDSDGDGKIGVDEFGAMIKA
notes: Gad m 1, Atlantic cod beta-parvalbumin; synthetic ORF in pET15b; Monomer in Ca2+, forms amyloids in EDTA; also called rGad wt; not shown: 6XHis, N-terminal, kept
Consider B1, for which the “stoichiometry N” value was 370.

In general, stoichiometry N refers to a count of units in the complex or per binding partner.
